One block for each substance: values may come before it. Square brackets hold non-standard residues; d marks the D form. Ends that are not written are not given here.
Molecular target: T1, mouse ADAMTS7 (Mus musculus, UniProt Q68SA9, E373Q)
T1 construct: Full-length mouse Adamts7 1-1857 (Uniprot Q68SA9, WT or E373Q catalytic mutant); expressed in transfected cells; host or cells: Human Coronary Artery Smooth Muscle Cells (HCA-SMC, Lonza), adenovirus 50 MOI
T1 sequence (Q68SA9 221-1657 E373Q): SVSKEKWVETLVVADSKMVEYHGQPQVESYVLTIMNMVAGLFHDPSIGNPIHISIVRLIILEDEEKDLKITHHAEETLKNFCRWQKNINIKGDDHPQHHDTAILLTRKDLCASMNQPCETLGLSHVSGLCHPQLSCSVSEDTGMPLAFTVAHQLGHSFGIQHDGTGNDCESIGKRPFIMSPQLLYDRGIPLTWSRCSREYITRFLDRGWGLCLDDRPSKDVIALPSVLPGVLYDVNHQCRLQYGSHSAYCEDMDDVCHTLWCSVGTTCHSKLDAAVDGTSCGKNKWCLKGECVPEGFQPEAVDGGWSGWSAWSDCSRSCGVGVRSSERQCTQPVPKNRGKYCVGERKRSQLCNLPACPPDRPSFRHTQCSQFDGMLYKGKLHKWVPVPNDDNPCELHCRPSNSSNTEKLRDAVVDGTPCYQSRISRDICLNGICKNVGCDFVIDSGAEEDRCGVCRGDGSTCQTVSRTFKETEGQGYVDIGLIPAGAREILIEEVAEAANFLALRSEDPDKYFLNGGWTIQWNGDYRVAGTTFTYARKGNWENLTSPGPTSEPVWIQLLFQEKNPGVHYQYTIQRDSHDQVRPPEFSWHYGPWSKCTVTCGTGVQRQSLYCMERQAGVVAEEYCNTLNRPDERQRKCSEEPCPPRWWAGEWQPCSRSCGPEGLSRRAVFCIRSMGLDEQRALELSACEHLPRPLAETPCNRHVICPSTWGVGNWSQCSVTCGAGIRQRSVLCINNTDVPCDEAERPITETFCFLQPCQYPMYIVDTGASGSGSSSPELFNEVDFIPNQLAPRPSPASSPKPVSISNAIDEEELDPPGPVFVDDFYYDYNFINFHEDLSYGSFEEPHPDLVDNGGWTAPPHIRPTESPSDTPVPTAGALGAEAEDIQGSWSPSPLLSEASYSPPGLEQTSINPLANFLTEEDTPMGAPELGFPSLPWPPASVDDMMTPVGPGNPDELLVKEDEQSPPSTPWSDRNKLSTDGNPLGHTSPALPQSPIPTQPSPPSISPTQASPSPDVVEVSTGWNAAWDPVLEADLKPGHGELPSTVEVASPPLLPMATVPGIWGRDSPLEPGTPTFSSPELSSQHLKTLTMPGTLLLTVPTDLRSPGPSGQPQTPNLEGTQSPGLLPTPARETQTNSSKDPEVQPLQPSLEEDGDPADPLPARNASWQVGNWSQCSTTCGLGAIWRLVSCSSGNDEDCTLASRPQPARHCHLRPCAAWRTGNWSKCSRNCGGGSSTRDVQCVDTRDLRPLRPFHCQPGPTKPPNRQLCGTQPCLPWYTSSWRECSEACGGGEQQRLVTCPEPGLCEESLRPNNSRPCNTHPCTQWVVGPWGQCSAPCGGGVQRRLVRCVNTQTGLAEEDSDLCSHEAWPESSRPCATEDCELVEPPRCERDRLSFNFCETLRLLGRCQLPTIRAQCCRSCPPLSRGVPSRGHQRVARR
Assay: TMT10 TAILS N-terminomics, SMC2 experiment (process replicates, trypsin/AspN digest)
Assay type: cell-based
Procedure, shortened: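 Full-length mouse ADAMTS7 (WT or E373Q mutant, C-terminal 3xFLAG) or luciferase was transduced via adenovirus, 50 MOI, into HCA-SMC (SMC1, SMC2) or HUVEC. SMC1: pooled media, technical triplicates 400 ug; SMC2: process triplicates 300 ug; HUVEC: process triplicates 200 ug, bFGF2 10 ng/ml.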

[1] = SMC2_TAILS HC, log fold change, mEQ over Luc
[2] = log fold change, ADAMTS7 EQ over luciferase

Substance: ADAM9_74 (GKEHIIHLER; listed as Homo sapiens)
logFC.mEQ.over.Luc [1]: −0.18

Substance: AMER2_654 (LAGTTIRATACH; listed as Homo sapiens)
logFC.mEQ.over.Luc [1]: 0.05

Substance: CCL2_28 (INAPVTCCYNFTNR; listed as Homo sapiens)
logFC.mEQ.over.Luc [1]: −0.11

Substance: CEP192_728 (DKSTAGR; listed as Homo sapiens)
logFC.mEQ.over.Luc [1]: −0.62

Substance: CTSB_109 (WAFGAVEAIS; listed as Homo sapiens)
logFC.mEQ.over.Luc [1]: −0.08

Substance: DBN1_434 (APVEPATA; listed as Homo sapiens)
logFC.mEQ.over.Luc [1]: 0.03

Substance: DIS3L_75 (FPELKGIIFMQTACQAVQHQR; listed as Homo sapiens)
logFC.mEQ.over.Luc [1]: −0.02

Substance: ECM1_38 (FQEVGYAAPPSPPLSR; listed as Homo sapiens)
logFC.mEQ.over.Luc [1]: −0.02

Substance: ECM1_44 (AAPPSPPLSR; listed as Homo sapiens)
logFC.mEQ.over.Luc [1]: −0.28

Substance: EEF1G_23 (QYSGAQVR; listed as Homo sapiens)
logFC.mEQ.over.Luc [1]: −0.12

Substance: EMSY_943 (QTVVQVLAVK; listed as Homo sapiens)
logFC.mEQ.over.Luc [1]: 0.20

Substance: FLNA_689 (VNKPAEFTV; listed as Homo sapiens)
logFC.mEQ.over.Luc [1]: −1.45

Substance: FN1_35 ([code q]MVQPQSPVAVSQSKPGCY; not fully specified (residue 2); listed as Homo sapiens)
logFC.mEQ.over.Luc [1]: −0.09

Substance: FN1_607 (SSSGPVEVFIT; listed as Homo sapiens)
logFC.mEQ.over.Luc [1]: 0.45

Substance: FN1_1693 (LQPTVEYVVSVYAQNPSG; listed as Homo sapiens)
logFC.mEQ.over.Luc [1]: −0.07

Substance: FN1_1780 (LQGLRPGSEYTVSVVALH; listed as Homo sapiens)
logFC.mEQ.over.Luc [1]: −0.34

Substance: FOXG1_235 (LNKCFVKVPRHY; listed as Homo sapiens)
logFC.mEQ.over.Luc [1]: 0.07

Substance: FSTL_1290 (LQKHQETA; listed as Homo sapiens)
logFC.mEQ.over.Luc [1]: −0.28

Substance: HEG1_51 (GLELQLER; listed as Homo sapiens)
logFC.mEQ.over.Luc [1]: 0.25

Substance: KCND1_436 (RLAKSGTTNAFLQYKQNGGLE; listed as Homo sapiens)
logFC.mEQ.over.Luc [1]: −0.14

Substance: LOX_125 (FQAGYSTSR; listed as Homo sapiens)
logFC.mEQ.over.Luc [1]: 0.11

Substance: QSOX1_558 (VAAAPELAMGALELESR; listed as Homo sapiens)
logFC.mEQ.over.Luc [2]: −0.19

Substance: SDC4_106 (LEENEVIPKR; listed as Homo sapiens)
logFC.mEQ.over.Luc [2]: −0.35

Substance: SMOC1_35 (LISDRDPQCNLHCSR; listed as Homo sapiens)
logFC.mEQ.over.Luc [2]: 0.14

Substance: SPOCK1_126 (HWVGPSNLVK; listed as Homo sapiens)
logFC.mEQ.over.Luc [2]: 0.36

Substance: SRGN_50 (LEEKGPMFELLPGESNKIPR; listed as Homo sapiens)
logFC.mEQ.over.Luc [2]: −0.07

Substance: SRGN_51 (EEKGPMFELLPGESNKIPR; listed as Homo sapiens)
logFC.mEQ.over.Luc [2]: −0.13

Substance: STC1_37 (QNSAEVVR; listed as Homo sapiens)
logFC.mEQ.over.Luc [2]: −0.22

Substance: STC2_244 (HHLPEPSSR; listed as Homo sapiens)
logFC.mEQ.over.Luc [2]: −0.26

Substance: TGFBI_50 (AVQKVIGTNR; listed as Homo sapiens)
logFC.mEQ.over.Luc [2]: 0.33

Substance: TGFBI_524 (SAGLTETLNR; listed as Homo sapiens)
logFC.mEQ.over.Luc [2]: 0.18

Substance: THBS1_972 (QNDPNWVVR; listed as Homo sapiens)
logFC.mEQ.over.Luc [2]: −0.04

Substance: TLN1_1501 (HTSALCNSCR; listed as Homo sapiens)
logFC.mEQ.over.Luc [2]: −0.17

Substance: TMEM132A_52 (LLDAPEHFR; listed as Homo sapiens)
logFC.mEQ.over.Luc [2]: −0.30

Substance: VASN_138 (HIQPGAFDTLDR; listed as Homo sapiens)
logFC.mEQ.over.Luc [2]: 0.19

Further lines, results first:

logFC.mEQ.over.Luc [1]: −0.31
Substance: ACTG1_105 (LTEAPLNPKANR; listed as Homo sapiens)

logFC.mEQ.over.Luc [1]: 0.00
Substance: ACTN4_5 (HAANQSYQYGPSSAGNGAGGGGSMG; listed as Homo sapiens)

logFC.mEQ.over.Luc [1]: −0.29
Substance: ADAM10_86 (FKVETSNKVL; listed as Homo sapiens)

logFC.mEQ.over.Luc [1]: 4.60
Substance: ADNP2_375 (SQPVGPVNK; listed as Homo sapiens)

logFC.mEQ.over.Luc [1]: 0.11
Substance: APLP2_452 (LVETHLAR; listed as Homo sapiens)

logFC.mEQ.over.Luc [1]: −0.07
Substance: APOA1_86 (EQLGPVTQEFW; listed as Homo sapiens)

logFC.mEQ.over.Luc [1]: −0.06
Substance: BMPER_43 (LTGSVAKCENEG; listed as Homo sapiens)

logFC.mEQ.over.Luc [1]: −0.01
Substance: CALU_176 (FTAFLHPEEY; listed as Homo sapiens)

logFC.mEQ.over.Luc [1]: 0.09
Substance: CAP1_300 (FSAPKPQTSPSPKR; listed as Homo sapiens)

logFC.mEQ.over.Luc [1]: −0.22
Substance: ECM1_108 (QEAVPLQK; listed as Homo sapiens)

logFC.mEQ.over.Luc [1]: 0.49
Substance: EIF4B_426 (QTGTSTTSSR; listed as Homo sapiens)

logFC.mEQ.over.Luc [1]: −0.15
Substance: FBLN2_665 (FSQVASNTIPLPLPQPNTCK; listed as Homo sapiens)

logFC.mEQ.over.Luc [1]: −0.06
Substance: FLNC_2649 (FVGQKNSFTV; listed as Homo sapiens)

logFC.mEQ.over.Luc [1]: −0.08
Substance: FN1_99 (DKYTGNTYR; listed as Homo sapiens)

logFC.mEQ.over.Luc [1]: 0.71
Substance: FN1_1805 (LIGTQSTAIPAPT; listed as Homo sapiens)

logFC.mEQ.over.Luc [1]: −0.19
Substance: FN1_2113 (FVTHPGY; listed as Homo sapiens)

logFC.mEQ.over.Luc [1]: 0.29
Substance: HEG1_224 (FQTKSGTAS; listed as Homo sapiens)

logFC.mEQ.over.Luc [1]: −0.34
Substance: KRT28_2 (SLQFSNGSR; listed as Homo sapiens)

logFC.mEQ.over.Luc [1]: −0.14
Substance: LASP1_182 (SYGGYKEPAAPVSIQR; listed as Homo sapiens)

logFC.mEQ.over.Luc [1]: −0.19
Substance: LOXL1_157 (SVSASAFASTYR; listed as Homo sapiens)

logFC.mEQ.over.Luc [1]: −0.34
Substance: LOX_60 (LGSQYQPQR; listed as Homo sapiens)

logFC.mEQ.over.Luc [2]: −0.69
Substance: SERPINH1_27 (AAAPGTAEKLSPKAATLAER; listed as Homo sapiens)

logFC.mEQ.over.Luc [2]: 0.32
Substance: SRGN_60 (LPGESNKIPR; listed as Homo sapiens)

logFC.mEQ.over.Luc [2]: −0.45
Substance: SRGN_62 (GESNKIPR; listed as Homo sapiens)

logFC.mEQ.over.Luc [2]: −0.11
Substance: STC2_239 (HGEAGHHLPEPSSR; listed as Homo sapiens)

logFC.mEQ.over.Luc [2]: 0.05
Substance: TGFBI_24 (GPAKSPYQLVLQHSR; listed as Homo sapiens)

logFC.mEQ.over.Luc [2]: 0.10
Substance: TGFBI_43 ([code q]HGPNVCAVQKVIGTNR; not fully specified; listed as Homo sapiens)

logFC.mEQ.over.Luc [2]: 0.30
Substance: TGFBI_208 (GIVTVNCAR; listed as Homo sapiens)

logFC.mEQ.over.Luc [2]: 0.09
Substance: TGFBI_276 (TLLAPT[code n]EAFEKIPSETLNR; not fully specified; listed as Homo sapiens)

logFC.mEQ.over.Luc [2]: 0.14
Substance: TGFBI_497 (VLTPPMGTVMDVLKGDNR; not fully specified (residue 6); listed as Homo sapiens)

logFC.mEQ.over.Luc [2]: 0.09
Substance: TGFBI_534 (EGVYTVFAPTNEAFR; listed as Homo sapiens)

logFC.mEQ.over.Luc [2]: 1.03
Substance: TG_1017 (GASALLR; listed as Homo sapiens)

logFC.mEQ.over.Luc [2]: −0.08
Substance: VASP_229 (AIAGAKLR; listed as Homo sapiens)

logFC.mEQ.over.Luc (SMC2_TAILS HC, log fold change of N-terminal peptide, Ad-mADAMTS7 EQ over Luc): −0.72
Substance: VCAN_3367 (FKNSSSAK; listed as Homo sapiens)

From patent US20240368668A1, “SUBSTRATES AND BIOMARKERS OF ADAMTS7” (The Broad Institute, Inc., priority 2021, published 2024)
